The target of this experiment is cytoplasmic dynein-1 heavy chain (human (endogenous in HEK-293)) (UniProt Q14204). Kind of experiment: co-IP + SEC; FLAG immunoprecipitate (GF buffer: 50 mM Tris-HCl pH 8.0, 150 mM NaCl, glycerol, 0.2% Triton X-100) run on Superose 6 Increase 10/300 GL; fractions blotted with anti-FLAG, anti-HC, anti-p150; percent = intensity incorporated/(free + incorporated).
UniProt Q14204, sequence (Q14204 whole entry): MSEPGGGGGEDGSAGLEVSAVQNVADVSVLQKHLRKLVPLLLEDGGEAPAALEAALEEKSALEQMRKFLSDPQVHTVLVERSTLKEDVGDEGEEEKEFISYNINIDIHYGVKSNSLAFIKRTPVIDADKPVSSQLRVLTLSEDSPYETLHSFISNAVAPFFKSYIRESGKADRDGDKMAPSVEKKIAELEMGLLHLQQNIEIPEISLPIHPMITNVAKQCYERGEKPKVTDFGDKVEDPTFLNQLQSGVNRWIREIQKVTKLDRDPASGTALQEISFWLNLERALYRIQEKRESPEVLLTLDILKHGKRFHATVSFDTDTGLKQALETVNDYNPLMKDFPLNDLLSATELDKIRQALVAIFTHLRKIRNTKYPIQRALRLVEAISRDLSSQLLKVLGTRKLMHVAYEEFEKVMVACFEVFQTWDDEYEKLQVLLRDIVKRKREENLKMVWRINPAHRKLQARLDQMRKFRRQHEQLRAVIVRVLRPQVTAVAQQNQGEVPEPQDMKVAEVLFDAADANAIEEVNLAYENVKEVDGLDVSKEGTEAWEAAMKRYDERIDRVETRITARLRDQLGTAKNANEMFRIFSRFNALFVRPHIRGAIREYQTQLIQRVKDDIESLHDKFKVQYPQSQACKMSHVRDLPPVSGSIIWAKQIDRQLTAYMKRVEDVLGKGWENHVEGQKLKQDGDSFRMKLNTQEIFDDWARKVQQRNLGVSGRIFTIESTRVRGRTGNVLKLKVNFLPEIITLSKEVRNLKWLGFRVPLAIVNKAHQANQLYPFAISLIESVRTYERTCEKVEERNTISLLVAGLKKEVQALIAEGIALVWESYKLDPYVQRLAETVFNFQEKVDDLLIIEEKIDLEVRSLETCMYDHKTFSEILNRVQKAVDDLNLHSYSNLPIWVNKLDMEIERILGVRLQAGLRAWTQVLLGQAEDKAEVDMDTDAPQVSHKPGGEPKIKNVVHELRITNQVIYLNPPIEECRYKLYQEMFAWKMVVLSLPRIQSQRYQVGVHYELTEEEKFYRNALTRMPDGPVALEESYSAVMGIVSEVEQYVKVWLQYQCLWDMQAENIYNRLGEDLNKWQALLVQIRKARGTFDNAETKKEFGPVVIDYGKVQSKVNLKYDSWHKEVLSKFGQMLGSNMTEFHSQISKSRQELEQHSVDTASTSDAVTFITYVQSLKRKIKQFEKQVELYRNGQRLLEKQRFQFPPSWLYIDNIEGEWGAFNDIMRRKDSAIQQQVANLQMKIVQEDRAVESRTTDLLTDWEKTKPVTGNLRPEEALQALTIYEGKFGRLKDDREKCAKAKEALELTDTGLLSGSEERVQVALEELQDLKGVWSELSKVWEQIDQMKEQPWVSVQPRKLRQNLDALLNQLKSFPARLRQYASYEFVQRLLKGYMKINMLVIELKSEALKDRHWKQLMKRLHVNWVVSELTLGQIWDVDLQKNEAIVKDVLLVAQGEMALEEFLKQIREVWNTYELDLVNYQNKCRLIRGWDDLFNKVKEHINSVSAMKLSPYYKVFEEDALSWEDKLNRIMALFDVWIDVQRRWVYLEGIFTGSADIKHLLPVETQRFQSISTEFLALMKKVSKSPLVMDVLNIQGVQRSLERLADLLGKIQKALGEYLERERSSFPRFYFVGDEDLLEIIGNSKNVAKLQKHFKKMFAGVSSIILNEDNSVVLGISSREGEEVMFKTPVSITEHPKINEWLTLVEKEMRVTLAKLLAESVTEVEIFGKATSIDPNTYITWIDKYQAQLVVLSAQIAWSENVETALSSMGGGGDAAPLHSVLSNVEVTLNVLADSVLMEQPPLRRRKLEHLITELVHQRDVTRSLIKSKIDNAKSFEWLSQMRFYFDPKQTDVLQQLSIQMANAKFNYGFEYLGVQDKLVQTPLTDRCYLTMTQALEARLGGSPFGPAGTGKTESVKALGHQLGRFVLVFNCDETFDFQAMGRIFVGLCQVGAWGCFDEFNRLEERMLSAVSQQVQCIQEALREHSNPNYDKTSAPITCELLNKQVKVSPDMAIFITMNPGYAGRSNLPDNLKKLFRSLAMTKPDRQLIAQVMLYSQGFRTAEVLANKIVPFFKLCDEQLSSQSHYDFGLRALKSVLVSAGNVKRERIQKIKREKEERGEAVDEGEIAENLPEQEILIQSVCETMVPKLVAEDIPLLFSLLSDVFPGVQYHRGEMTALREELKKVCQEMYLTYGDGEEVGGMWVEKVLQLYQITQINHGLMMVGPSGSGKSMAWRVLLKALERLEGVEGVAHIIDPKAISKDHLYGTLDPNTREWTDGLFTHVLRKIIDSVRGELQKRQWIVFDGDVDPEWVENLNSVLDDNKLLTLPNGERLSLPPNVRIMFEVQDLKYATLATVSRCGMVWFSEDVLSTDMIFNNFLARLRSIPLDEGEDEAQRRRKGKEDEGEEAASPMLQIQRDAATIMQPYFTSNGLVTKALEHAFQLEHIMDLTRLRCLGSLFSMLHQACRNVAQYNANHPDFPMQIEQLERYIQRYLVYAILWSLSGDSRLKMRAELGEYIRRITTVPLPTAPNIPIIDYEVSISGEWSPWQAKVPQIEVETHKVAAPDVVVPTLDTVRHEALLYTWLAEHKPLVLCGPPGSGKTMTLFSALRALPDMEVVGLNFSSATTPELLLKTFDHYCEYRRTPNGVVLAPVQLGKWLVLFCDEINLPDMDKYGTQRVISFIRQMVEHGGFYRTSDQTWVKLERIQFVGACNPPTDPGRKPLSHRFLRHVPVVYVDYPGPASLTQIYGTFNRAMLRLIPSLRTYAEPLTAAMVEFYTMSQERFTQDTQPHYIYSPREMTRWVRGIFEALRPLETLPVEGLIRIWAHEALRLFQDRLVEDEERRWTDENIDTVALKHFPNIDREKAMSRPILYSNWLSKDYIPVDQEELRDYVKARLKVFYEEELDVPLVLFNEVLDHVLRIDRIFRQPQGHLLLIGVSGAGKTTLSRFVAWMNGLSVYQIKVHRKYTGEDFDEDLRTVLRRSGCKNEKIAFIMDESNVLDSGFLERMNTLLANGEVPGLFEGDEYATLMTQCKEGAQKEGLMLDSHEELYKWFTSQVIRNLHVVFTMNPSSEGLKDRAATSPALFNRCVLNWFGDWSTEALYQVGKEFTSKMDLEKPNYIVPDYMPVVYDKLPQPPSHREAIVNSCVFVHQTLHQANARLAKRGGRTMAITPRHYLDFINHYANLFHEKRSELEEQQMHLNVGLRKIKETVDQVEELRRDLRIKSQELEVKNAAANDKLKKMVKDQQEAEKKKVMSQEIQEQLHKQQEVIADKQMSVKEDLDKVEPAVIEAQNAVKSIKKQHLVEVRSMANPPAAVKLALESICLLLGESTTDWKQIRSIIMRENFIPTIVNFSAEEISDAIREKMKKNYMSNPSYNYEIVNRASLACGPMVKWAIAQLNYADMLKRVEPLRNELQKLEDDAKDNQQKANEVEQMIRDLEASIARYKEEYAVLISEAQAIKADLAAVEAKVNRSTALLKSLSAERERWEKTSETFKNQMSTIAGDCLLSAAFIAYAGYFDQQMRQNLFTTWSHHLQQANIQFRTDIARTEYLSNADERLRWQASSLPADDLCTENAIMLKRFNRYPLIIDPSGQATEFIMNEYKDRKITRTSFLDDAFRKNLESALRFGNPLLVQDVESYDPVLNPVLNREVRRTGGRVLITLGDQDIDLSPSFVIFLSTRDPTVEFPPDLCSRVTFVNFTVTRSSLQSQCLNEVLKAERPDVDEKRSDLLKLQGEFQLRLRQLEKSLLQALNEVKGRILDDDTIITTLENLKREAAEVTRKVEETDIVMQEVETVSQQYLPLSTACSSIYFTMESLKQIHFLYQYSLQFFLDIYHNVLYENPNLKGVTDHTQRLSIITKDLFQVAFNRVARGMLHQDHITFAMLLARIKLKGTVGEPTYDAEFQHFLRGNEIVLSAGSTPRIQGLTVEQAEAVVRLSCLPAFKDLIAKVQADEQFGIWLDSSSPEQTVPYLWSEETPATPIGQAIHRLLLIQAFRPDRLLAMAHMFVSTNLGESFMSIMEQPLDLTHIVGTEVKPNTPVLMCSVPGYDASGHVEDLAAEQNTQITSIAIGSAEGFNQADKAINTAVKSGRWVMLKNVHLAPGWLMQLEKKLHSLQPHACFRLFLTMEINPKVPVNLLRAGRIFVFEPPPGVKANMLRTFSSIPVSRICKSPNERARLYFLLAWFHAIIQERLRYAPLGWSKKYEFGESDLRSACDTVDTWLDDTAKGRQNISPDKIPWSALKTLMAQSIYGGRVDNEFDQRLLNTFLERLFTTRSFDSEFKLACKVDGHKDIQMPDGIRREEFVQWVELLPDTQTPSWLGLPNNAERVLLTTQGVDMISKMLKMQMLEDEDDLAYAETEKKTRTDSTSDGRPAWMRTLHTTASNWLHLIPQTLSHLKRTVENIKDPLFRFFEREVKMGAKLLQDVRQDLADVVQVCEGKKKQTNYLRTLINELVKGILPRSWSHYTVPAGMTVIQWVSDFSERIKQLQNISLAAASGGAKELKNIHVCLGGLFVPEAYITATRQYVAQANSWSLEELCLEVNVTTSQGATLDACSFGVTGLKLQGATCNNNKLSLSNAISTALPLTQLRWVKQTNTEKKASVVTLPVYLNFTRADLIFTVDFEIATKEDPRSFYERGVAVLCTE

As for IC2-BioID-3×FLAG (natural protein), the percent of the tagged subunit incorporated into the complex was 51%.

The values above are taken from article PMC5533585.
